The results in this text go back to paper PMC8928223, “The Collagen Receptor Discoidin Domain Receptor 1b Enhances Integrin β1-Mediated Cell Migration by Interacting With Talin and Promoting Rac1 Activation” (Frontiers in Cell and Developmental Biology, 2022).

For assay [1], the target named is T1, talin head domain (THD, a. a. 1-433), HIS-tagged (UniProt P26039 1-433).
T1 chain: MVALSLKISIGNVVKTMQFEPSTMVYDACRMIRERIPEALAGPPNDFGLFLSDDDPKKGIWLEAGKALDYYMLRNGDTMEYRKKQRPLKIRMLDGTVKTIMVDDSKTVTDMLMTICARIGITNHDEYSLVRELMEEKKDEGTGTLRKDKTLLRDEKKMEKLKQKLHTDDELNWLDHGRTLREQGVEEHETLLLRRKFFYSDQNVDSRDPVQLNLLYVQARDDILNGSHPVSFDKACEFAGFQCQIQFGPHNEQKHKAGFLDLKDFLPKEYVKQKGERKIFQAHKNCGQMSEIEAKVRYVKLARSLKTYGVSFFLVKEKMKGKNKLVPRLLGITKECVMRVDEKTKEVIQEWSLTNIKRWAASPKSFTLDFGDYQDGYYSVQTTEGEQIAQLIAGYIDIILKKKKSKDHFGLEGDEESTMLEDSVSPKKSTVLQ
Kind of assay: ELISA.

For assay [2], the target named is T2, DDR1b-Turbo containing a Flag tag (human, UniProt Q08345-1 19-913).
T2 construct: Discoidin domain receptor 1, isoform DDR1b, human, fused to the biotin ligase turbo-Flag as bait for BioID; construct described in Borza et al., 2021; source: HEK 293, stably transfected, in live cells and lysate
Kind of assay: proximity labelling; BioID with turbo-Flag fused to DDR1 in HEK cells plated on collagen I (30 µg/ml) for 1-3 h with 50 µM biotin; streptavidin-agarose pull-down of the lysate and Western blot. To be noted: partners not purified. A general note: A western blot detects proteins with antibodies after separation by electrophoresis.

B1: DDR1a cytoplasmic domain (domain or fragment)
chain: WRLHWRRLLSKAERRVLEEELTVHLSVPGDTILINNRPGPREPPPYQEPRPRGNPPHSAPCVPNGSAYSGDYMEPEKPGAPLLPPPPQNSVPHYAEADIVTLQGVTGGNTYAVPALPPGAVGDGPPRVDFPRSRLRFKEKLGEGQFGEVHLCEVDSPQDLVSLDFPLNVRKGHPLLVAVKILRPDATKNARNDFLKEVKIMSRLKDPNIIRLLGVCVQDDPLCMITDYMENGDLNQFLSAHQLEDKAAEGAPGDGQAAQGPTISYPMLLHVAAQIASGMRYLATLNFVHRDLATRNCLVGENFTIKIADFGMSRNLYAGDYYRVQGRAVLPIRWMAWECILMGKFTTASDVWAFGVTLWEVLMLCRAQPFGQLTDEQVIENAGEFFRDQGRQVYLSRPPACPQGLYELMLRCWSRESEQRPPFSQLHRFLAEDALNTV
For B1, the Kd in assay [1] was 220 nM.

B2: DDR1b cytoplasmic domain (domain or fragment)
chain: WRLHWRRLLSKAERRVLEEELTVHLSVPGDTILINNRPGPREPPPYQEPRPRGNPPHSAPCVPNGSALLLSNPAYRLLLATYARPPRGPGPPTPAWAKPTNTQAYSGDYMEPEKPGAPLLPPPPQNSVPHYAEADIVTLQGVTGGNTYAVPALPPGAVGDGPPRVDFPRSRLRFKEKLGEGQFGEVHLCEVDSPQDLVSLDFPLNVRKGHPLLVAVKILRPDATKNARNDFLKEVKIMSRLKDPNIIRLLGVCVQDDPLCMITDYMENGDLNQFLSAHQLEDKAAEGAPGDGQAAQGPTISYPMLLHVAAQIASGMRYLATLNFVHRDLATRNCLVGENFTIKIADFGMSRNLYAGDYYRVQGRAVLPIRWMAWECILMGKFTTASDVWAFGVTLWEVLMLCRAQPFGQLTDEQVIENAGEFFRDQGRQVYLSRPPACPQGLYELMLRCWSRESEQRPPFSQLHRFLAEDALNTV
B2: the Kd in assay [1] amounted to 96.5 nM.

B3: Breakpoint cluster region protein (BCR) (natural protein, human (endogenous in HEK 293), UniProt P11274 1-1271, looked up)
chain: MVDPVGFAEAWKAQFPDSEPPRMELRSVGDIEQELERCKASIRRLEQEVNQERFRMIYLQTLLAKEKKSYDRQRWGFRRAAQAPDGASEPRASASRPQPAPADGADPPPAEEPEARPDGEGSPGKARPGTARRPGAAASGERDDRGPPASVAALRSNFERIRKGHGQPGADAEKPFYVNVEFHHERGLVKVNDKEVSDRISSLGSQAMQMERKKSQHGAGSSVGDASRPPYRGRSSESSCGVDGDYEDAELNPRFLKDNLIDANGGSRPPWPPLEYQPYQSIYVGGMMEGEGKGPLLRSQSTSEQEKRLTWPRRSYSPRSFEDCGGGYTPDCSSNENLTSSEEDFSSGQSSRVSPSPTTYRMFRDKSRSPSQNSQQSFDSSSPPTPQCHKRHRHCPVVVSEATIVGVRKTGQIWPNDGEGAFHGDADGSFGTPPGYGCAADRAEEQRRHQDGLPYIDDSPSSSPHLSSKGRGSRDALVSGALESTKASELDLEKGLEMRKWVLSGILASEETYLSHLEALLLPMKPLKAAATTSQPVLTSQQIETIFFKVPELYEIHKEFYDGLFPRVQQWSHQQRVGDLFQKLASQLGVYRAFVDNYGVAMEMAEKCCQANAQFAEISENLRARSNKDAKDPTTKNSLETLLYKPVDRVTRSTLVLHDLLKHTPASHPDHPLLQDALRISQNFLSSINEEITPRRQSMTVKKGEHRQLLKDSFMVELVEGARKLRHVFLFTDLLLCTKLKKQSGGKTQQYDCKWYIPLTDLSFQMVDELEAVPNIPLVPDEELDALKIKISQIKNDIQREKRANKGSKATERLKKKLSEQESLLLLMSPSMAFRVHSRNGKSYTFLISSDYERAEWRENIREQQKKCFRSFSLTSVELQMLTNSCVKLQTVHSIPLTINKEDDESPGLYGFLNVIVHSATGFKQSSNLYCTLEVDSFGYFVNKAKTRVYRDTAEPNWNEEFEIELEGSQTLRILCYEKCYNKTKIPKEDGESTDRLMGKGQVQLDPQALQDRDWQRTVIAMNGIEVKLSVKFNSREFSLKRMPSRKQTGVFGVKIAVVTKRERSKVPYIVRQCVEEIERRGMEEVGIYRVSGVATDIQALKAAFDVNNKDVSVMMSEMDVNAIAGTLKLYFRELPEPLFTDEFYPNFAEGIALSDPVAKESCMLNLLLSLPEANLLTFLFLLDHLKRVAEKEAVNKMSLHNLATVFGPTLLRPSEKESKLPANPSQPITMTDSWSLEVMSQVQVLLYFLQLEAIPAPDSKRQSILFSTEV
modifications: biotinylated by the turbo ligase in cells
notes: Breakpoint cluster region protein, in HEK 293 cells, detected with an anti-BCR antibody after streptavidin pull-down; source: endogenous, HEK 293 cells, in lysate
With B3, the “fold increase in biotinylated BCR against DDR1a-expressing cells” value in assay [2] is 2.92 ± 1.42 fold.

As usually defined, the Kd is the concentration at which binding is half-saturated. Read a low Kd as tighter binding.
